In patent US20250122301A1 (IBIO, published 2025):

T1: CD25 on CD25+ cells (SUDHL-1, HEK IL-2 reporter cells, primary human regulatory T cells) (human, UniProt P01589 22-272)
T1 sequence (looked up): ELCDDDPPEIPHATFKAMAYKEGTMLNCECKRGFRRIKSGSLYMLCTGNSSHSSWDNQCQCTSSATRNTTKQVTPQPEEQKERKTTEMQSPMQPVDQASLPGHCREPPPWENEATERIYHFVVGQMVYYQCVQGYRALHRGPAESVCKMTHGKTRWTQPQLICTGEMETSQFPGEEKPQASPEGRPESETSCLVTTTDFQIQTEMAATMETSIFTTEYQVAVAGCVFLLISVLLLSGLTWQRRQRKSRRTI

T2: full-length CD25 (human CD25, recombinant protein used on biosensors) (human, UniProt P01589 22-213, limits assumed)
T2 construct: Printed only as Human CD25 / full-length CD25; also called CD25 antigen; alpha chain of the IL-2 receptor
T2 sequence (looked up): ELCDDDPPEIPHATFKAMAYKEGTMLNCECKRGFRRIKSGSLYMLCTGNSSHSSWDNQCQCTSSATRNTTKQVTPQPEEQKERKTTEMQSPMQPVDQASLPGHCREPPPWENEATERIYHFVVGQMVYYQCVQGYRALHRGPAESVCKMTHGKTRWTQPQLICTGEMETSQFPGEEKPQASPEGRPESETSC

B1: D34 Fab (Fab, V domains shown)
VH: QVQLQQSGAELVRPGVSVKISCKGSGYTFTDYAMHWVKQSHAKSLEWIGVISTYSGDVSYNQKFKGKATMTVDKSSSTAYMELARLTSEDSAIYYCARGVTFDSWGQGTTVTVSS
VL: DIQMTQSPASLSASVGETVTITCRASENSYSYLEWYQQKQGKSPQLLVYNAKTLAEGVPSRFSGSGSGTQFSLKINSLQPEDFGTYYCQHHYGTPYTFGGGTKLEIK
notes: Fab; also called Fab clone D34
B2: 7G7B6 (antibody, V domains shown)
VH: EVQLVESGGDLVQPRGSLKLSCAASGFTFSSYGMSWVRQTPDKRLELVATINGYGDTTYYPDSVKGRFTISRDNAKNTLYLQMSSLKSEDTAMYFCARDRDYGNSYYYALDYWGQGTSVTVSS
VL: QIVLSQSPAILSASPGERVTMTCRASSSVSFMHWLQQKPGSSPKPWIYATSNLASGVSARFSGSGSGTSYSLTITRVEAEDAATYYCQQWSSNPPAFGGGTKLEIK
B3: AH05258 (human IgG1 reformatted) (antibody, V domains shown)
VH: QIQLQQSGAELVRPGVSVKISCKGSGYTFTDYAMHWVKQSHAKSLEWIGVISTYSGDVSYNQKFKGKATMTVDKSSSTAYMELARLTSEDSAIYYCARGVTFDSWGQGTTLTVSS
VL: DIVMTQSHKFMSTSVGDRVSITCKASQDVSTAVAWYQQKPGQSPKLLIYSASYRYTGVPDRFTGSGSGTDFTFTISSVQAEDLAVYYCQQHYSTPFTFGSGTKLEIK
B4: D34 (human IgG1 reformatted) (antibody, V domains shown)
VH: QVQLQQSGAELVRPGVSVKISCKGSGYTFTDYAMHWVKQSHAKSLEWIGVISTYSGDVSYNQKFKGKATMTVDKSSSTAYMELARLTSEDSAIYYCARGVTFDSWGQGTTVTVSS
VL: DIQMTQSPASLSASVGETVTITCRASENSYSYLEWYQQKQGKSPQLLVYNAKTLAEGVPSRFSGSGSGTQFSLKINSLQPEDFGTYYCQHHYGTPYTFGGGTKLEIK
B5: AH05257 (human IgG1 reformatted) (antibody, V domains shown)
VH: QVQLQQSGAELVRPGVSLKISCKGSGYTFTDYAMHWVRQSHAKSLEWIGVISTYSGDAIYNQKFKGKATMTVDKSSSTAYLELARLTSEDSAIYYCARGVTFDYWGQGTTLTVSA
VL: DIVMTQSTSSLSASLGDRVTISCRASQDISNYLSWYQQKPDGTIKLLIYYTSRLHSGVSSRFSGSGSGTDYSLTISNLEQEDFATYFCQQGHTLPPTFGGGTKLEIK
B6: AH05271 (human IgG1 reformatted) (antibody, V domains shown)
VH: QVQLQQSGAELVRPGVSVKISCKGSGYTFTDYAMHWVKQSHAKSLEWIGVISTYSGDVSYNQKFKGKATMTVDKSSSTAYMELARLTSEDSATYYCARGVTFDSWGQGTTLTVSS
VL: DIQMTQTPASLAASVGETVTITCRASENIYFSLAWYQQKQGKSPQLLIYNANTLEDGVPSRFSGSGSGTQFSMKINNMQPEDTATYFCKQAYDVPWTFGGGTKLEIK
B7: D11 (human IgG1 reformatted) (antibody, V domains shown)
VH: QIQLQQPGAELVRPGVSLKISCKGSGYTFTDYAMHWVRQSHAKSLEWIGVISTYSGDAIYNQKFKGKATMTVDKSSSTAYLELARLTSDDSAIYYCARGVTFDYWGQGTTVTVSS
VL: DIQMTQTTSSLSASLGDRVTITCRASQDISNYLEWYQQKQGKSPQLLVYNAKTLAEGVPSRFSGSGSGTQFSLKINSLQPEDFGSYYCQHHYDTPYTFGGGTKLEIK
B8: AH05268 (human IgG1 reformatted) (antibody, V domains shown)
VH: QVQLQQSGAELVRPGVSLKISCKGSGYTFTDYAMHWVRQSHAKSLEWIGVISTYSGDALYNQKFKGKATMTVDKSSSTAYLELARLTSDDSAIYYCARGVTFDYWGQGTTLTVSS
VL: DVQMTQSPSSMYASLGERVTFTCKASQDINRYLSWFQQKPGKSPKTLIYRANRLVDGVPSRFSGSGSGQNYSLTISSLEYEDMGIYYCLQYDEFPYTFGGGTKLEIK
B9: AH05247 (human IgG1 reformatted) (antibody, V domains shown)
VH: QVQLQQSGADLMKPGASVKMSCRASGYTFSNYWIEWIKQRPGHGLEWIGEILPGSGFTNYNENFKGKATFTADTSSNTTYMLLSSLSSEDSAVYYCARGGTSVVHFDSWGQGTTLTVSS
VL: DIVMTQSQKFMSTSVGDRVSVTCKASQNVGTNVAWYQQKPGQSPKALIYSASYRYSGVPDRFTGSGSGTDFTLTISNVQSEDLAEYFCQQYNSYPLTFGGGTKLEIK
B10: BP003-T2P1E3 (human IgG1 reformatted) (antibody, V domains shown)
VH: QIQLQQSGAELVRPGTSVKMSCKAAGYTFTNYWIGWVKQRPGHGLEWIGDIHPGGGYTNYNEKFKGKATLTADTSSSTAYMQLSSLTSEDSAIYYCTSRNFAYWGQGTPVTVSS
VL: DIVLTQSQKFMSTSVGDRVSVTCKASQNVGTNVAWYQQKPGQSPKALIYSASYRYSGVPDRFTGSGSGTDFTLTISNVQSEDLAEYFCQQYNSYPYTFGGGTKLEIK
B11: AH05286 (human IgG1 reformatted) (antibody, V domains shown)
VH: QVQLKQSGADLMKPGASVKISCKASGYTFSNYWIEWIKQRPGHGLEWIGEILPGSGYTNYNENFKGKATFTADTSSNTTYIQLSSLSSEDSAVYYCARGGTSFVHFDYWGQGTTLTVSS
VL: DIVLTQSPPTLSLSPGERVTLSCKASQDVNTAVAWYQQKPGQAPRLLIYWASTRHTGVPSRFSGSGSGTDFTLTISSLQPEDFATYYCQQHYSSPWTFGGGTKLEIK
B12: AH04509 (human IgG1 reformatted) (antibody, V domains shown)
VH: QIQLQQSGAELVRPGTSVKMSCKAAGYTFTNYWIGWVKQRPGHGLEWIGDFYPGGDYINYNEKFKGKATLTADTSSSTAYMQLSSLTSEDSAIYYCTSRNFAYWGQGTPVTVSS
VL: DTTVTQSQRFMSTSVGDRVSVTCKASQNVGTNVAWYQQKPGQSPKPLIYSASYRYSGVPDRFTGSGSGTDFTLTINNVQSEDLAEYFCQQYNNSPLTFGGGTKLEIK
notes: also called AH4509
B13: AH05249 (human IgG1 reformatted) (antibody, V domains shown)
VH: QVQLQQSGADLMKPGASVKMSCRASGYTFSNYWIEWIKQRPGHGLEWIGEILPGSGFTNYNENFKGKATFTADTSSNTTYMLLSSLSSEDSAVYYCARGGTSVVHFDSWGQGTTLTVSS
VL: DIVMTQTPKFLLVSAGDRVTITCKASQSVNNDVVWYQQKPGQSPKLLIYYASNRYTGVPDRFTGSGYGTDFTFTISTVQAEDLAVYFCQQDYRSPYTFGGGTKLEIK
B14: AH05280 (human IgG1 reformatted) (antibody, V domains shown)
VH: EVRLQQSGADLMKPGASVKISCKTSGYTFSNYWTEWIKQRPGHGLEWIGEILPGSGFTNYNENFKGKATFTADTSSNTTYMQLSSLTSEDSAVYYCARGGTSVVHFDYWGQGTSLTVSS
VL: DIVMTQTPKFLLVSAGDRVTITCKASQSVNNDVLWYQQKPGQSPKLLIYYASNRYTGVPDRFTGSGYGTDFTFTISTVQAEDLAVYFCQQAYWSPYTFGGGTKLEIK
B15: AH05251 (human IgG1 reformatted) (antibody, V domains shown)
VH: EVRLQQSGAELVRSGASVKLSCTASGFNIKDYYIHWVKQRPEQGLEWIGWIDPDNGETEYAPKFQGKATMTADTSSNTAHLQLSSLTSEDTAVYYCTVFWYGNNYAGFAYWGQGTLVTVSS
VL: DVVMTQTPLSLPVNLGDQASISCRSSQSIVHSNGNTYLEWYLQKPGQSPKLLIYKVSNRFSGVPDRFSGSGSGTDFTLKISRVEAEDLGIYYCFQGSHVPPTFGGGTKLEIK
B16: BP003-T2P1D7 (human IgG1 reformatted) (antibody, V domains shown)
VH: QAYLQQSGAELVRSGASVKLSCTASGFNIKDYYIHWVKQRPEQGLEWIGWIDPDNGETEYAPKFQGKATMTADTSSNTAHLQLSSLTSEDTAVYYCTVFWYGNNYAGFAYWGQGTLVTVSA
VL: DVVLTQTPLSLPVSLGDQASISCRSSQSIVHSNGNTYLEWYLQKPGQSPKLLIYKVSNRFSGVPDRFSGSGSGTDFTLKISKVEAEDLGVYYCFQGSHVPPTFGGGTKLEIK
B17: AH04750 (human IgG1 reformatted) (antibody, V domains shown)
VH: QVQLQQPGAEMAKPGASVKMSCKASGYTSTAYWIHWVKQRPGQGLEWIGYITPSTGYTEYNQKFEDKATLTADKSSNTAYMQLNSLTSEDSAVYYCARGGYFDYWGQGTTVTVSS
VL: DIQMTQTTSSLSASLGDRVTISCRASQDISNYLNWYQQKPDGTVKLLIYYTSRLHSGVPSRFSGSGSGTDYSLTISNLEQEDIATYFCQQGNTLPPTFGGGTKLEMK
B18: AH04734 (human IgG1 reformatted) (antibody, V domains shown)
VH: QVQLQQPAAELARPGASVKMSCKASGYTFTTSTMHWVKQRPGQGLEWIGYINPRSGYTEYNQKFKDKTTLTADKSSSTAYMQLSSLTSEDSAVYYCARHYYFDYWGQGTTVTVSS
VL: DIQMTQSTSSLSASLGDRVTISCRASQDIRNYLNWYQQKPDGTVKLLIYYTSRLHSGVPSRFSGSGSGTDYSLTISNLEQEDIATYFCQQGNTLPPTSGGGTKLEIK
B19: AH05214 (human IgG1 reformatted) (antibody, V domains shown)
VH: QIQLQQPGAELVKPGASVKLPCKASGYTFTSYWMHWVKQRPGQGLEWIGEINPSNGRTNYNEKFKSKATLTVDKSSSTAYMQLSSLTSEDSAVYYCARQLAAYWGQGTTVTVSS
VL: DILLTQSPALMAASPGEKVTITCSVSSSISSSNLHWYQQKSETSPKPWIYGTSNLASGVPVRFSGSGSGTSYSLTISSMEAEDAATYYCQQWSSYPLTFGGGTKLEIK

The binders below were run against T1, CD25 on CD25+ cells (SUDHL-1, HEK IL-2 …) (assay: cell-based or functional assay).

| Binder | pSTAT5 IC50 (1 ug/mL) [ng/ml] | pSTAT5 IC50 (2 ug/mL) [ng/ml] | pSTAT5 IC50 (5 ug/mL) [ng/ml] |
| --- | --- | --- | --- |
| B1 | 2.56 | 2.35 | 2.27 |
| B2 | 0.963 | 0.906 | 1.47 |

Each binder was assayed against T2, full-length CD25 (human CD25, …) (assay: Octet BLI, human CD25 on AR2G tip, Fab, pH 6.5).
Method: For Octet Koff rate screening in raw supernatants, 50 ul of lysate was used in 384-well Pall ForteBio Octet plates. […] Briefly, Human CD25 was coupled to AR2G tips (1 ug/ml). For data collection, baseline was assessed in PBST 1% BSA buffer at pH 6.5 for 60 seconds. Tips were then moved to 50 ul lysate pH6.5 adjusted and association measured for 300 seconds. Finally, tips were moved to PBST 1% BSA buffer at pH 6.5. Tips were then regenerated with 200 mM Tris-Glycine, pH 2.5 and neutralization with PBST, 1% BSA, pH 6.5. For data analysis, Double referencing was performed on Octet HT 11.0 software (no CD25 on tip as well as blank reference well), for reference subtraction.

| Binder | koff [s⁻¹] |
| --- | --- |
| B1 | 0.00296 |

The binders below were run against T1, CD25 on CD25+ cells (SUDHL-1, HEK IL-2 …) (assay: flow cytometry, dose response on CD25+ SUDHL-1 cells;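 further: antibody binding to cells read as median fluorescence intensity of an AF647 anti-human Fc secondary, DAPI+ dead cells excluded, 20 min on ice, 5-fold dilutions from 10 ug/mL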).
Method: For each cell line, 100,000 cells were plated in a 96 well round bottom plate in cell buffer (PBS+2% HI FBS) and centrifuged. Antibody concentrations from 1-10 ug/mL were used to test the binding of each antibody. Cell were resuspended in 100 uL of antibodies/well and incubated for 20 minutes on ice. After incubation, cells were centrifuged at 300×g for 5 minutes at room temperature, and resuspended and washed with ice cold cell buffer. Cells were then stained with an anti-human Fc secondary antibody conjugated to AF647 (Biolegend) and incubated on ice for 20 min in the dark. Cells were centrifuged, washed and resuspended in cold cell buffer with DAPI and analyzed using flow cytometry (Cytoflex, Becton Dickinson). DAPI+ cell were excluded from analysis. The mean fluorescence intensity was calculated using the median (FlowJo, TreeStar).

| Binder | EC50 [µg/mL] |
| --- | --- |
| B3 | 0.184 |
| B4 | 1.1 |
| B5 | 0.113 |
| B6 | 0.25 |
| B7 | 2.12 |
| B8 | 0.108 |
| B2 | 0.903 |
| B9 | 0.0977 |
| B10 | 0.125 |
| B11 | 0.777 |
| B12 | 0.121 |
| B13 | 0.897 |
| B14 | 0.387 |
| B15 | 0.132 |
| B16 | 0.125 |
| B17 | 0.107 |
| B18 | 1.91 |
| B19 | ~51.1 |

These binders were tested against T2, full-length CD25 (human CD25, …) (assay: Octet BLI, human CD25 on AR2G tip, Fab, pH 7.4).

| Binder | koff [s⁻¹] |
| --- | --- |
| B1 | 0.00285 |
